Assay [1] has as its target plasminogen (Homo sapiens) (UniProt P00747). As to conditions: cited from earlier work.
Assay [2] addresses plasmin (Homo sapiens) (UniProt P00747). Briefly: SPR. The note with it: cited from earlier work.
The target is the same in assay [3]. As to conditions: cited from earlier work.
Assay [4] deals with fibrin (purified fibrin clots) (UniProt P02671).

Read-outs that look alike come from different tables or passages of the source.

Sequence of streptokinase (P10520 27-440): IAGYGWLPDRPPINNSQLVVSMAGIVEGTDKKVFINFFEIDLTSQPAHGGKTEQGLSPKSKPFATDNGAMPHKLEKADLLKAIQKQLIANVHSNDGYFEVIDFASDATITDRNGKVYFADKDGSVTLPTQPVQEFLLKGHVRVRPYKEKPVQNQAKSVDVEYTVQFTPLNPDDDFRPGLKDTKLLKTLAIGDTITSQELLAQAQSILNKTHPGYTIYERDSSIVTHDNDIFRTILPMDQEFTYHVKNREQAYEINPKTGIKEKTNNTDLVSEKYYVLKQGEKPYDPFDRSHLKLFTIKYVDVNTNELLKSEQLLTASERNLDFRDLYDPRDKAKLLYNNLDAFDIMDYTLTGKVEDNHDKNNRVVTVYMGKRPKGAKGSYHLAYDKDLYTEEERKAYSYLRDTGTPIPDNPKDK
Sequence of UniProt P02671 (P02671 36-866, chain 1 of 3): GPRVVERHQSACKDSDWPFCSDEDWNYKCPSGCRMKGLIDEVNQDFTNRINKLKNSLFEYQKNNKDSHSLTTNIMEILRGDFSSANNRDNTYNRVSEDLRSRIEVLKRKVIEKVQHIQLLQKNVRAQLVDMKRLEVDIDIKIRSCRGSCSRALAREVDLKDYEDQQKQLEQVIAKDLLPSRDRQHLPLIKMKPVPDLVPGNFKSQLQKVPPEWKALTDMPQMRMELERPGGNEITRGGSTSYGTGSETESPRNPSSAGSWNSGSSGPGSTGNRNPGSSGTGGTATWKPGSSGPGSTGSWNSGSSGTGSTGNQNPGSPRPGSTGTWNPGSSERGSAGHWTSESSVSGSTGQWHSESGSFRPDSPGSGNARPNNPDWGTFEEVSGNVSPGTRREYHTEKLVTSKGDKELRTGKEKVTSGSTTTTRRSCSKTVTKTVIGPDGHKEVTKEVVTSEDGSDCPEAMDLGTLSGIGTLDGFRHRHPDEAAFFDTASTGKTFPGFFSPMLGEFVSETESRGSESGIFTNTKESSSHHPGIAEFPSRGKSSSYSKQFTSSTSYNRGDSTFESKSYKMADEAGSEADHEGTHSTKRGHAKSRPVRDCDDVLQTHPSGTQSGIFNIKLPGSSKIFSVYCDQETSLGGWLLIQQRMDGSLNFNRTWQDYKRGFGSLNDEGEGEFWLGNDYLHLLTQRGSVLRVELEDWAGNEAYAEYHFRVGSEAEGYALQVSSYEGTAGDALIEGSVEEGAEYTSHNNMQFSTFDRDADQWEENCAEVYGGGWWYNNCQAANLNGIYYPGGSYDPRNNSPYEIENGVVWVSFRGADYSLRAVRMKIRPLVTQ
Sequence of UniProt P02671 (P02675 45-491, chain 2 of 3, further chain): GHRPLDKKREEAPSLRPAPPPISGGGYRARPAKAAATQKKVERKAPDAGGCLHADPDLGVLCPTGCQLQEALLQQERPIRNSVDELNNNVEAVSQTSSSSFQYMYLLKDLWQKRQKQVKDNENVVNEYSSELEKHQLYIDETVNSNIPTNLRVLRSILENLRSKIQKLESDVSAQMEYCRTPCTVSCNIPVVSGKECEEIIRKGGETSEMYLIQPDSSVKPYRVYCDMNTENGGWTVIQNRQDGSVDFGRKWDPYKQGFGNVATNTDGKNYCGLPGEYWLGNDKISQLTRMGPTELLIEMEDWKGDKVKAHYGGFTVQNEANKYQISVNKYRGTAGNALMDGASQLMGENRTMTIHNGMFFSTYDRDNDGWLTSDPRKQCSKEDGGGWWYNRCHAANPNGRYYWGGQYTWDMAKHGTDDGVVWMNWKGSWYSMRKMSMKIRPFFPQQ
Sequence of UniProt P02671 (P02679 27-453, chain 3 of 3, further chain): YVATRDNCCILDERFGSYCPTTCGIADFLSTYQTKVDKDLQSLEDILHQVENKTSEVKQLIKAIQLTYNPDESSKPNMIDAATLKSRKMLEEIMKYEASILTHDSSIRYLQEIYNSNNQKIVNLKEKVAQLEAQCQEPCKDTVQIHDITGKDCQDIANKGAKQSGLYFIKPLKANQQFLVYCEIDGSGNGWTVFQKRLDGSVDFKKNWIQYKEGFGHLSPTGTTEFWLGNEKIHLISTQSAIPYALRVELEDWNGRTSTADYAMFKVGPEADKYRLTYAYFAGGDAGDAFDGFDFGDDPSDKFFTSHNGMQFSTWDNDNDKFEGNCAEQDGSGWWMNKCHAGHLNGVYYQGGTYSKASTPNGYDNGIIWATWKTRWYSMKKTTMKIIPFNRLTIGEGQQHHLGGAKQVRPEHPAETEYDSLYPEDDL

In general, Kd refers to the constant that tells how readily two partners part at equilibrium. Regarding streptokinase (from UniProt P10520), the Kd is 6 nM in assay [1], 0.5 nM in the assay with plasmin (Homo sapiens) [2] and 0.3 nM in the assay with plasmin (Homo sapiens) [3].
Turning to “recombinant streptokinase from the M1 type group A streptococcus, Streptococcus pyogenes strain SF370 (rSK-M1GAS) (natural protein)”, the IC50 of tranexamic acid (TA) for inhibition of Pgn activation by rSK-M1GAS in fibrin in assay [4] amounted to 133000 nM.

Source of the values: article PMC5268773.
